In US20150344544A1 (ACADEMIA SINICA, published 2015):

T1: FcγRIIa (UniProt P12318 34-217, limits assumed)
T1 construct: Used in ELISA; construct not described
T1 sequence (looked up): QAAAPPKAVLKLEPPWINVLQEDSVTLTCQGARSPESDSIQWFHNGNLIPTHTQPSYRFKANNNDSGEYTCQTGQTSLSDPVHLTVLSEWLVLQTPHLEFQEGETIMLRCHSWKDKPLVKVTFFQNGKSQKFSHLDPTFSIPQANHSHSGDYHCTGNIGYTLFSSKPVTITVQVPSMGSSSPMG

T2: FcγRIIb (UniProt P31994 43-217, limits assumed)
T2 construct: Used in ELISA; construct not described
T2 sequence (looked up): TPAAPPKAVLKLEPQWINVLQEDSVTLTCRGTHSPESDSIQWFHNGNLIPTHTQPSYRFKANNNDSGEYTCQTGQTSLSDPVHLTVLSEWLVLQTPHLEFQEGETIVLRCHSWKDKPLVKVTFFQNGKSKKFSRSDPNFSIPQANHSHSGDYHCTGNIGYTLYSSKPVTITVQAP

B1: 2,6-NSCT-Rituximab (antibody, human IgG1, kappa)
heavy: not shown
light: QIVLSQSPAILSASPGEKVTMTCRASSSVSYIHWFQQKPGSSPKPWIYATSNLASGVPVRFSGSGSGTSYSLTISRVEAEDAATYYCQQWTSNPPTFGGGTKLEIKRTVAAPSVFIFPPSDEQLKSGTASVVCLLNNFYPREAKVQWKVDNALQSGNSQESVTEQDSKDSTYSLSSTLTLSKADYEKHKVYACEVTHQGLSSPVTKSFNRGEC
modifications: homogeneous afucosylated Fc N-glycan (Asn-297): Sia2(α2-6)Gal2GlcNAc2Man3GlcNAc2
notes: also called anti-CD20 GAb101
B2: G6 glycoengineered Rituximab (antibody, human IgG1, kappa)
heavy: not shown
light: B1 light
modifications: homogeneous afucosylated Fc N-glycan (Asn-297): GalGlcNAc2Man3GlcNAc2
notes: IgG1; also called anti-CD20 GAb106
B3: G3 glycoengineered Rituximab (antibody, human IgG1, kappa)
heavy: not shown
light: B1 light
modifications: homogeneous afucosylated Fc N-glycan (Asn-297): GlcNAcMan3GlcNAc2
notes: IgG1; also called anti-CD20 GAb109
B4: G1 glycoengineered Rituximab (antibody, human IgG1, kappa)
heavy: not shown
light: B1 light
modifications: homogeneous afucosylated Fc N-glycan (Asn-297): Gal2GlcNAc2Man3GlcNAc2
notes: IgG1; also called anti-CD20 GAb104
B5: G8 glycoengineered Rituximab (antibody, human IgG1, kappa)
heavy: not shown
light: B1 light
modifications: homogeneous afucosylated Fc N-glycan (Asn-297): GlcNAcMan3GlcNAc2
notes: IgG1; also called anti-CD20 GAb110
B6: G9 glycoengineered Rituximab (antibody, human IgG1, kappa)
heavy: not shown
light: B1 light
modifications: homogeneous afucosylated bisected Fc N-glycan (Asn-297): GlcNAc3Man3GlcNAc2
notes: IgG1; bisected glycan; also called anti-CD20 GAb107
B7: G7 glycoengineered Rituximab (antibody, human IgG1, kappa)
heavy: not shown
light: B1 light
modifications: homogeneous afucosylated Fc N-glycan (Asn-297): Man3GlcNAc2
notes: IgG1; also called anti-CD20 GAb111
B8: Rituximab (antibody, human IgG1, kappa)
heavy: not shown
light: B1 light
notes: Commercial IgG1 with its native heterogeneous Fc glycans; also called Rituxan; Roche-Rituximab
B9: 2,3-NSCT-Rituximab (antibody, human IgG1, kappa)
heavy: not shown
light: B1 light
modifications: homogeneous afucosylated Fc N-glycan (Asn-297), 2,3-sialylated: Sia2(α2-3)Gal2GlcNAc2Man3GlcNAc2
B10: mono-GlcNAc Rituximab (antibody, human IgG1, kappa)
heavy: not shown
light: B1 light
modifications: single GlcNAc (defucosylated) at the Fc N-glycosylation site (Asn-297)
notes: IgG1; made from Rituximab with fucosidase BfFucH and an endoglycosidase; also called N-Rituximab

The binders below were run against T3, FcγRIIIa (UniProt P08637 17-208, limits assumed) (assay: SPR, antibody captured with Human Fab capture kit, single cycle kinetics).
T3 construct: Soluble receptor used in ELISA and SPR; source and construct not described; also called FcRIIIA
T3 sequence (P08637 17-208 limits assumed): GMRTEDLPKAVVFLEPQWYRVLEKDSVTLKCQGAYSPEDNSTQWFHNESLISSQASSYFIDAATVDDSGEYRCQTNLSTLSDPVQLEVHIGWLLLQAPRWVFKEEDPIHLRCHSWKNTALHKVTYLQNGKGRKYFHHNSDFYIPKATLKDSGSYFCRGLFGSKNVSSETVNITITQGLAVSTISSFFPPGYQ
Text: Analyzed antibodies were captured by means of the Human Fab capture kit and detected with the single cycle kinetic method.
B1 gave a Kd of 8.28 nM. With B2 the Kd was 27.2 nM. B3 was tested, and the Kd was 83.6 nM. Binder B4 has a Kd of 9.33 nM. In the case of B5, the Kd is reported as 120 nM. With B6 the Kd was 26.2 nM. B7 gave a Kd of 62.7 nM.

The binders below were run against T1, FcγRIIa (assay: ELISA).
In the case of B8, the EC50 is reported as 5.4 nM. B9 was tested, and the EC50 was 16.5 nM. With B1 the EC50 was 3 nM.

These binders were tested against T3, FcγRIIIa (assay: ELISA).
In the case of B8, the EC50 is reported as 6.2 to 9 nM. With B1 the EC50 was 0.24 to 0.27 nM. Work on B10 yielded an EC50 of 36.3 nM.

What follows are binders tested against T2, FcγRIIb (assay: ELISA).
For B8, the EC50 was 0.51 nM. In the case of B9, the EC50 is reported as 0.53 nM. B1 gave an EC50 of 0.28 nM. B10 showed an EC50 of 0.32 nM.

These binders were tested against T4, FcγRI (UniProt P12314 16-288, limits assumed) (assay: ELISA).
T4 construct: Used in ELISA; construct not described
T4 sequence (P12314 16-288 limits assumed): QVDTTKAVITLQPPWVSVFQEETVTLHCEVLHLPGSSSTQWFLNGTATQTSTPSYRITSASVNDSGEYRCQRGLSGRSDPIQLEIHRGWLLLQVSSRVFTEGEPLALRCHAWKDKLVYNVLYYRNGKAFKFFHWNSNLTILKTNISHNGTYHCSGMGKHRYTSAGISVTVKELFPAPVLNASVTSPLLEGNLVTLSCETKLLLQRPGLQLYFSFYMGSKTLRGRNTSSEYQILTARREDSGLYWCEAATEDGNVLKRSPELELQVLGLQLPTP
B8 was tested, and the EC50 was 0.19 nM. In the case of B1, the EC50 is reported as 0.23 nM. B10 gave an EC50 of 0.85 nM.

Each binder was assayed against T5, C1q (UniProt P02745 23-245; P02746 28-253; P02747 29-245) (assay: ELISA).
T5 construct: Complement component C1q used in ELISA; source not described
T5 sequence (P02745 23-245 limits assumed, chain 1 of 3): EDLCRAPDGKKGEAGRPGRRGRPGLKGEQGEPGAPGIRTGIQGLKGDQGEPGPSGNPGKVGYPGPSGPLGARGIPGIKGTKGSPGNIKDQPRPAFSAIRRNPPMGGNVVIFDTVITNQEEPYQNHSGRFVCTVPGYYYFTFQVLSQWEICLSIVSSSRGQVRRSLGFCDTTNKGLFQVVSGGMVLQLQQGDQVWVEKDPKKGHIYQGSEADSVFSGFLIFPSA
T5 sequence (P02746 28-253 limits assumed, chain 2 of 3): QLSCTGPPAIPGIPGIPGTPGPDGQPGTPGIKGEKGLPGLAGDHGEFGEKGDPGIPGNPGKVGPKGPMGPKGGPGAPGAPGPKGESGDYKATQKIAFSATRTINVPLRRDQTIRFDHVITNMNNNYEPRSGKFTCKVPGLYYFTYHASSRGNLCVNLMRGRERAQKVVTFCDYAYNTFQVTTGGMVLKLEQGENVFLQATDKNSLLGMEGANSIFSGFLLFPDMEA
T5 sequence (P02747 29-245 limits assumed, chain 3 of 3): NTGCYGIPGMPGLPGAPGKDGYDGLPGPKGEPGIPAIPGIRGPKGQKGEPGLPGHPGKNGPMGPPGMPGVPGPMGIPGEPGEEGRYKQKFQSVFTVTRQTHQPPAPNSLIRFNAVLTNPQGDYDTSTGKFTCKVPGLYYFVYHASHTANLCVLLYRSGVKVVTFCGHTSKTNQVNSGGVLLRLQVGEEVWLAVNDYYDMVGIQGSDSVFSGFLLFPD
Binder B8 has an EC50 of 6.5 nM. B1 gave an EC50 of 8 nM.

What follows are binders tested against T3, FcγRIIIa (assay: SPR; commercial Rituxan, not glycoengineered (reference)).
B8 showed a Kd of at most 300 nM.

These binders were tested against T3, FcγRIIIa (assay: SPR).
With B8 the Kd was 100 nM. B2 was tested, and the Kd was 7 to 30 nM.

Each binder was assayed against T3, FcγRIIIa (assay: cell-based or functional assay).
With B8 the “EC50 (ug/ml), PBMC mediated ADCC on Raji cells” value (“EC50 (ug/ml) … on Raji cells” below) was 0.319 µg/mL, the “EC50 (ug/ml), PBMC mediated ADCC on Ramos cells” value was 4.38 µg/mL and the “EC50 (ug/ml), PBMC mediated ADCC on SKW6.4 cells” value (“EC50 (ug/ml) … on SKW6.4 cells” below) was 2.07 µg/mL. With B9 the “EC50 (ug/ml) … on Raji cells” value was 0.086 µg/mL, the “EC50 (ug/ml), PBMC mediated ADCC on Ramos cells” value was 1.45 µg/mL and the “EC50 (ug/ml) … on SKW6.4 cells” value was 1.22 µg/mL. For B1, the “EC50 (ug/ml) … on Raji cells” value was 0.022 µg/mL, the “EC50 (ug/ml), PBMC mediated ADCC on Ramos cells” value was 0.377 µg/mL and the “EC50 (ug/ml) … on SKW6.4 cells” value was 0.276 µg/mL.

These binders were tested against T5, C1q (assay: cell-based or functional assay).
For B8, the “EC50 (ug/ml), CDC assay on Ramos cells, FACS” value (from here on “EC50 (ug/ml), CDC assay”) was 0.033 µg/mL. B9 was tested, and the “EC50 (ug/ml), CDC assay” value was 0.086 µg/mL. For B1, the “EC50 (ug/ml), CDC assay” value was 0.039 µg/mL.
